Assay results published in patent US20240108766A1 (Bayer, published 2024).
Where a chain is given by its changes, count along the chain named.

T1: human LRRC15 expressed on cells (human, UniProt Q8TF66 22-581)
T1 construct: whole, on cells; On HEK293 cells transfected with LRRC15/ZsGreen1 (Retrogenix), on HT29 cells transfected with human LRRC15, and endogenous on Saos-2; also called LRRC15/ZsGreen1 transfected HEK293 cells; HT29-LRRC15
T1 sequence (looked up): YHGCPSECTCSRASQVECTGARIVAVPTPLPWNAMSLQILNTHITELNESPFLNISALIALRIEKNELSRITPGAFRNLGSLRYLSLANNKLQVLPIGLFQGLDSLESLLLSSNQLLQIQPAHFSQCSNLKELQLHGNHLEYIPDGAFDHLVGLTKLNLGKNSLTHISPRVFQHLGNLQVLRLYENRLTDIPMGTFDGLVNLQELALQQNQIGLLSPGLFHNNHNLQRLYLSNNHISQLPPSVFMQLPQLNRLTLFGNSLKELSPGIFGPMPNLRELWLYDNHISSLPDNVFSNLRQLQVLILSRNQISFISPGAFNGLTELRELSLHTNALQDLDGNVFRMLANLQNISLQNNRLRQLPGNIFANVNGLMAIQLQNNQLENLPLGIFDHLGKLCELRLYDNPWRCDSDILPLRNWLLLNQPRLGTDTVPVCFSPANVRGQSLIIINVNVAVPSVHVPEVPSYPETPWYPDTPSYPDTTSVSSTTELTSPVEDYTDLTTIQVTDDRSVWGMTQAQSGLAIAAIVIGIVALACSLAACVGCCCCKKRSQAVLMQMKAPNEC

T2: human LRRC15 extracellular domain with C-terminal His tag (human, UniProt Q8TF66 22-538)
T2 construct: Recombinant, made in HEK293; the entry holds the extracellular domain and the His tag; SPR analyte; also called TPP-1545; hLRRC15 CT-His
T2 sequence: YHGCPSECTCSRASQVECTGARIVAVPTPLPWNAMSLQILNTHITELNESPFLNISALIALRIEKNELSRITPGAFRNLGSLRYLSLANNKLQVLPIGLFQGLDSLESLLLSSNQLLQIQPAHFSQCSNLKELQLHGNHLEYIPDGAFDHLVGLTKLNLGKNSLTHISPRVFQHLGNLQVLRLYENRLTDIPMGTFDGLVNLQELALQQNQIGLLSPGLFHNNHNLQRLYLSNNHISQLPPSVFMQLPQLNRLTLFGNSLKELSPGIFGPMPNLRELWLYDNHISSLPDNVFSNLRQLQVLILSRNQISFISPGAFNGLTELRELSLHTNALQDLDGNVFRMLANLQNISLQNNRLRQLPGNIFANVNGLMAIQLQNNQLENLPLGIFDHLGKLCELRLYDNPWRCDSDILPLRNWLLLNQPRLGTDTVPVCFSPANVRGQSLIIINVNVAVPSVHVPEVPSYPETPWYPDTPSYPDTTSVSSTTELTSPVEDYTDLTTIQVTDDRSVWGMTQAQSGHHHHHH

B1: TPP-12942 (antibody, human IgG1, kappa, V domains shown)
VH: EVQLVQSGAEVKKPGASVKVSCKASGYKFSSYWIEWVKQAPGQGLEWIGEILPGSDTTNYNEKFKDRATFTSDTSINTAYMELSRLRSDDTAVYYCARDRGNYRAWFGYWGQGTLVTVSS
VL: DIQMTQSPSSLSASVGDRVTITCRASQDISNYLNWYQQKPGGAVKFLIYYTSRLHSGVPSRFSGSGSGTDYTLTISSLQPEDFATYFCQQGEALPWTFGGGTKVEIKR
notes: Prior art humanized IgG1 kappa antibody, used as comparator; also called huM25; huM25-hIgG1Kappa
B2: TPP-17421 (antibody, human IgG1, kappa, V domains shown)
VH: B1 VH with T57W, G108Q
VL: B1 VL with D28S, N31S, V44P, T51A, R53S, H55Q, F87Y, E92L, A93E
notes: also called 438H-M306-C11-hIgG1Kappa
B3: TPP-17078 (antibody, human IgG1, kappa, V domains shown)
VH: B1 VH
VL: B1 VL with D28S, N31S, V44P, T51A, R53S, H55Q, F87Y, E92F, A93S
notes: also called 438H-M308-H05-hIgGkappa
B4: TPP-14389 (antibody, human IgG1, kappa, V domains shown)
VH: EVQLLESGGGLVQPGGSLRLSCAASGFTFSGYMMSWVRQAPGKGLEWVSGIYPSPGYTYYADSVKGRFTISRDNSKNTLYLQMNSLRAEDTAVYYCAREKASDLFGSYSEALDYWGQGTLVTVSS
VL: DIQMTQSPDSLSASVGDRVTITCRASQDVGSWLAWYQQKPGKAPKLLIFAASSLESGIPSRFSGSGSGTDFTLTISSLQPEDFATYYCQQANGFPLTFGGGTKVEIKR
notes: also called 13612-rec02-hIgG1Kappa

These binders were tested against T1, human LRRC15 expressed on cells (assay: flow cytometry, transfected HEK293, 0.004 µg/ml).

| Median Fluorescence AF647 | Binder |
| --- | --- |
| 19800 | B1 |
| 13100 | B2 |
| 27600 | B3 |

What follows are binders tested against T2, human LRRC15 extracellular domain with … (assay: calculated from SPR kd, 20°C).
Protocol: (§1) To assess if anti-LRRC-15 antibodies show a difference in binding at different temperatures, binding assays were conducted using surface plasmon resonance (SPR). Binding assays were performed on a Biacore T200 instrument at temperatures of 10° C., 20° C., 25° C. and 37° C. with assay buffer HBS EP+, 1 mg/ml BSA (bovine serum albumine), 300 mM NaCl, 0.05% NaN₃. Antibodies were captured via anti-human Fc IgGs covalently amine coupled to a CM5 sensor chip and human LRRC15 was used as an analyte in a concentration series from 1.56-200 nM in multi cycle kinetics mode. Pre-experiments were conducted to have an equal capture level at each temperature. Obtained sensorgrams were fitted to a 1:1 Langmuir binding model to derive kinetic data.

| Complex Half Life [h] | Binder |
| --- | --- |
| 0.41 | B4 |
| 0.218 | B1 |
| 4.48 | B2 |
| 4.18 | B3 |

These binders were tested against T1, human LRRC15 expressed on cells (assay: flow cytometry, transfected HEK293, 0 µg/ml).

| Median Fluorescence AF647 | Binder |
| --- | --- |
| 594 | B1 |
| 588 | B2 |
| 597 | B3 |

Each binder was assayed against T2, human LRRC15 extracellular domain with … (assay: SPR at 10-37°C (Example 3)).
Protocol: as §1

| Temperature dependent loss in binding affinity [fold] | Binder |
| --- | --- |
| 108 | B4 |
| 13.8 | B1 |
| 5.2 | B2 |
| 30.9 | B3 |

What follows are binders tested against T1, human LRRC15 expressed on cells (assay: flow cytometry, transfected HEK293, 0.02 µg/ml).

| Median Fluorescence AF647 | Binder |
| --- | --- |
| 63400 | B1 |
| 35200 | B2 |
| 83700 | B3 |

What follows are binders tested against T1, human LRRC15 expressed on cells (assay: flow cytometry, transfected HEK293, 12.5 µg/ml).

| Median Fluorescence AF647 | Binder |
| --- | --- |
| 726000 | B1 |
| 736000 | B2 |
| 707000 | B3 |

Each binder was assayed against T2, human LRRC15 extracellular domain with … (assay: SPR Biacore T200, 25°C, antibody captured, LRRC15 analyte).
Protocol: To assess the binding kinetics and affinity of anti-LRRC15 antibodies as well as their species cross-reactivity profile, binding assays were conducted using surface plasmon resonance (SPR). Binding assays were performed on a Biacore T200 instrument at 25° C. using assay buffer HBS EP+, 1 mg/ml BSA, 300 mM NaCl, 0.05% NaN3. Antibodies were captured via anti-human Fc IgGs covalently amine coupled to a CM5 sensor chip and human, mouse and cynomolgus LRRC15 were used as analytes in a concentration series from 1.56-200 nM in multi cycle kinetics mode. […] Obtained sensorgrams were fitted to a 1:1 Langmuir binding model to derive kinetic data.

| Kd [nM] | Binder |
| --- | --- |
| 5.9 | B4 |
| 25 | B1 |
| 0.96 | B2 |
| 1.7 | B3 |

Each binder was assayed against T2, human LRRC15 extracellular domain with … (assay: calculated from SPR kd, 10°C).
Protocol: as §1

| Complex Half Life [h] | Binder |
| --- | --- |
| 1.6 | B4 |
| 0.963 | B1 |
| 9.63 | B2 |
| 14.8 | B3 |

What follows are binders tested against T2, human LRRC15 extracellular domain with … (assay: calculated from SPR kd, 25°C).
Protocol: as §1

| Complex Half Life [h] | Binder |
| --- | --- |
| 0.148 | B4 |
| 3.63 | B2 |
| 2.12 | B3 |

These binders were tested against T2, human LRRC15 extracellular domain with … (assay: SPR Biacore T200, antibody captured, LRRC15 analyte, 25°C).
Protocol: as §1

| Kd [nM] | Binder |
| --- | --- |
| 5.4 | B4 |
| 21 | B1 |
| 0.88 | B2 |
| 1.6 | B3 |

The binders below were run against T1, human LRRC15 expressed on cells (assay: flow cytometry, transfected HEK293, 62.5 µg/ml).

| Median Fluorescence AF647 | Binder |
| --- | --- |
| 620000 | B1 |
| 650000 | B2 |
| 621000 | B3 |

Each binder was assayed against T1, human LRRC15 expressed on cells (assay: flow cytometry, transfected HEK293, 2.5 µg/ml).

| Median Fluorescence AF647 | Binder |
| --- | --- |
| 746000 | B1 |
| 649000 | B2 |
| 777000 | B3 |
